The supplement of paper PMC10567573

B1: INTS3 (parent)
chain: EEITEESLEESVGKPLYLIFRNLC
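Note: lentivirally expressed fusions sorted by FACS into six bins by GFP to DsRed ratio, PSI derived from sequencing read proportions per bin multiplied by bin number.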

Variants of: B1
Assay: protein stability index of a GFP-peptide fusion (GPS, HEK-293T) (PSI 1-6); higher = more stable
Settings: c terminus: a fixed tail appended
In the case of EEITEESLEVSVGKPLYLIFRNLC, the protein stability index is reported as 2.09.
In the case of EEITEESLEWSVGKPLYLIFRNLC, the protein stability index is reported as 2.21.
With EEITEESLEYSVGKPLYLIFRNLC the protein stability index was 2.23.
With EEITEESLEEAVGKPLYLIFRNLC the protein stability index was 2.57.
For EEITEESLEECVGKPLYLIFRNLC, the protein stability index was 2.34.
Work on EEITEESLEEDVGKPLYLIFRNLC yielded a protein stability index of 3.03.
For EEITEESLEEEVGKPLYLIFRNLC, the protein stability index was 2.55.
In the case of EEITEESLEEFVGKPLYLIFRNLC, the protein stability index is reported as 2.57.
Variant EEITEESLEEGVGKPLYLIFRNLC has a protein stability index of 2.9.
With EEITEESLEEHVGKPLYLIFRNLC the protein stability index was 2.56.
EEITEESLEEIVGKPLYLIFRNLC gave a protein stability index of 2.52.
EEITEESLEEKVGKPLYLIFRNLC gave a protein stability index of 2.61.
EEITEESLEELVGKPLYLIFRNLC gave a protein stability index of 2.51.
Variant EEITEESLEEMVGKPLYLIFRNLC has a protein stability index of 2.8.
For EEITEESLEENVGKPLYLIFRNLC, the protein stability index was 2.96.
In the case of EEITEESLEEPVGKPLYLIFRNLC, the protein stability index is reported as 2.36.
With EEITEESLEEQVGKPLYLIFRNLC the protein stability index was 3.33.
Variant EEITEESLEERVGKPLYLIFRNLC has a protein stability index of 2.71.
With EEITEESLEETVGKPLYLIFRNLC the protein stability index was 2.79.
EEITEESLEEVVGKPLYLIFRNLC showed a protein stability index of 2.32.
EEITEESLEEWVGKPLYLIFRNLC showed a protein stability index of 2.4.
EEITEESLEEYVGKPLYLIFRNLC showed a protein stability index of 2.58.
EEITEESLEESAGKPLYLIFRNLC gave a protein stability index of 3.26.
EEITEESLEESCGKPLYLIFRNLC gave a protein stability index of 2.55.
EEITEESLEESDGKPLYLIFRNLC showed a protein stability index of 3.63.
For EEITEESLEESEGKPLYLIFRNLC, the protein stability index was 3.36.
EEITEESLEESFGKPLYLIFRNLC gave a protein stability index of 2.56.
Work on EEITEESLEESGGKPLYLIFRNLC yielded a protein stability index of 3.12.
EEITEESLEESHGKPLYLIFRNLC gave a protein stability index of 3.28.
EEITEESLEESIGKPLYLIFRNLC showed a protein stability index of 2.51.
Variant EEITEESLEESKGKPLYLIFRNLC has a protein stability index of 3.54.
With EEITEESLEESLGKPLYLIFRNLC the protein stability index was 2.5.
EEITEESLEESMGKPLYLIFRNLC gave a protein stability index of 2.26.
EEITEESLEESNGKPLYLIFRNLC gave a protein stability index of 2.95.
In the case of EEITEESLEESPGKPLYLIFRNLC, the protein stability index is reported as 2.94.
For EEITEESLEESQGKPLYLIFRNLC, the protein stability index was 3.34.
With EEITEESLEESRGKPLYLIFRNLC the protein stability index was 2.86.
For EEITEESLEESSGKPLYLIFRNLC, the protein stability index was 3.54.
With EEITEESLEESTGKPLYLIFRNLC the protein stability index was 3.13.
For EEITEESLEESWGKPLYLIFRNLC, the protein stability index was 2.47.
EEITEESLEESYGKPLYLIFRNLC gave a protein stability index of 2.36.
EEITEESLEESVAKPLYLIFRNLC showed a protein stability index of 2.88.
EEITEESLEESVCKPLYLIFRNLC showed a protein stability index of 2.37.
EEITEESLEESVDKPLYLIFRNLC gave a protein stability index of 2.88.
Work on EEITEESLEESVEKPLYLIFRNLC yielded a protein stability index of 3.12.
With EEITEESLEESVFKPLYLIFRNLC the protein stability index was 2.28.
Work on EEITEESLEESVHKPLYLIFRNLC yielded a protein stability index of 2.23.
In the case of EEITEESLEESVIKPLYLIFRNLC, the protein stability index is reported as 1.81.
EEITEESLEESVKKPLYLIFRNLC showed a protein stability index of 2.44.
Variant EEITEESLEESVLKPLYLIFRNLC has a protein stability index of 2.23.
EEITEESLEESVMKPLYLIFRNLC gave a protein stability index of 2.5.
Variant EEITEESLEESVNKPLYLIFRNLC has a protein stability index of 2.64.
Work on EEITEESLEESVPKPLYLIFRNLC yielded a protein stability index of 3.31.
With EEITEESLEESVQKPLYLIFRNLC the protein stability index was 3.11.
EEITEESLEESVRKPLYLIFRNLC gave a protein stability index of 2.7.
EEITEESLEESVSKPLYLIFRNLC showed a protein stability index of 2.36.
Variant EEITEESLEESVTKPLYLIFRNLC has a protein stability index of 2.46.
In the case of EEITEESLEESVVKPLYLIFRNLC, the protein stability index is reported as 1.98.
EEITEESLEESVWKPLYLIFRNLC showed a protein stability index of 1.79.
EEITEESLEESVYKPLYLIFRNLC gave a protein stability index of 2.14.
EEITEESLEESVGAPLYLIFRNLC showed a protein stability index of 2.96.
With EEITEESLEESVGCPLYLIFRNLC the protein stability index was 3.5.
Variant EEITEESLEESVGDPLYLIFRNLC has a protein stability index of 3.48.
EEITEESLEESVGEPLYLIFRNLC showed a protein stability index of 3.54.
EEITEESLEESVGFPLYLIFRNLC showed a protein stability index of 2.25.
Variant EEITEESLEESVGGPLYLIFRNLC has a protein stability index of 2.96.
With EEITEESLEESVGHPLYLIFRNLC the protein stability index was 3.2.
EEITEESLEESVGIPLYLIFRNLC gave a protein stability index of 2.78.
Variant EEITEESLEESVGLPLYLIFRNLC has a protein stability index of 3.3.
In the case of EEITEESLEESVGMPLYLIFRNLC, the protein stability index is reported as 2.48.
EEITEESLEESVGNPLYLIFRNLC showed a protein stability index of 3.52.
For EEITEESLEESVGPPLYLIFRNLC, the protein stability index was 3.67.
In the case of EEITEESLEESVGQPLYLIFRNLC, the protein stability index is reported as 3.19.
With EEITEESLEESVGRPLYLIFRNLC the protein stability index was 3.31.
In the case of EEITEESLEESVGSPLYLIFRNLC, the protein stability index is reported as 2.94.
EEITEESLEESVGTPLYLIFRNLC showed a protein stability index of 3.38.
EEITEESLEESVGVPLYLIFRNLC showed a protein stability index of 2.6.
Work on EEITEESLEESVGWPLYLIFRNLC yielded a protein stability index of 2.39.
For EEITEESLEESVGYPLYLIFRNLC, the protein stability index was 2.47.
Work on EEITEESLEESVGKALYLIFRNLC yielded a protein stability index of 1.25.
With EEITEESLEESVGKCLYLIFRNLC the protein stability index was 2.05.
EEITEESLEESVGKDLYLIFRNLC gave a protein stability index of 3.32.
EEITEESLEESVGKELYLIFRNLC gave a protein stability index of 2.14.
EEITEESLEESVGKFLYLIFRNLC gave a protein stability index of 1.97.
In the case of EEITEESLEESVGKGLYLIFRNLC, the protein stability index is reported as 2.
With EEITEESLEESVGKHLYLIFRNLC the protein stability index was 2.24.
EEITEESLEESVGKILYLIFRNLC showed a protein stability index of 2.17.
EEITEESLEESVGKKLYLIFRNLC gave a protein stability index of 1.93.
Variant EEITEESLEESVGKLLYLIFRNLC has a protein stability index of 1.85.
EEITEESLEESVGKMLYLIFRNLC showed a protein stability index of 2.
EEITEESLEESVGKNLYLIFRNLC gave a protein stability index of 2.29.
Variant EEITEESLEESVGKQLYLIFRNLC has a protein stability index of 1.52.
In the case of EEITEESLEESVGKRLYLIFRNLC, the protein stability index is reported as 2.12.
For EEITEESLEESVGKSLYLIFRNLC, the protein stability index was 2.02.
